*1 amine or outer side, *2 acyl side, *3 side chain or, on linkers, in order; H or OH if unused. Where a SMILES comes first, the peptide text is derived from it. Primed or numbered codes have the meaning given here. Where no end group is shown, it is not given here. [ ]: non-standard residue; d: D form. The star is where a group is joined. Pqa = 4-oxo-6-(1-piperazinyl)-3(4H)-quinazoline-acetic acid (CAS 889958-08-1), O=C(Cn1cnc2ccc(N3CCN([*:1])CC3)cc2c1=O)[*:2]; Pqa″ = 4-oxo-6-(1-piperazinyl)-3(4H)-quinazoline-acetic acid, O=C(Cn1cnc2ccc(N3CCN([*:1])CC3)cc2c1=O)[*:2]; Tyr(2,6-F2) = N[C@@H](Cc1c(F)cc(O)cc1F)C(=O)O; NMeR = CN[C@@H](CCCNC(=N)N)C(=O)O; Piv = CC(C)(C)C(=O)*; Bz = O=C(c1ccccc1)*
Experiments:
Y2R = target: T1, Y2R (Homo sapiens, UniProt P49146); settings: values of WO 2007/065808; read-out: Y2R EC50 (nM) cAMP; cited from earlier work
T1 sequence (P49146 1-381): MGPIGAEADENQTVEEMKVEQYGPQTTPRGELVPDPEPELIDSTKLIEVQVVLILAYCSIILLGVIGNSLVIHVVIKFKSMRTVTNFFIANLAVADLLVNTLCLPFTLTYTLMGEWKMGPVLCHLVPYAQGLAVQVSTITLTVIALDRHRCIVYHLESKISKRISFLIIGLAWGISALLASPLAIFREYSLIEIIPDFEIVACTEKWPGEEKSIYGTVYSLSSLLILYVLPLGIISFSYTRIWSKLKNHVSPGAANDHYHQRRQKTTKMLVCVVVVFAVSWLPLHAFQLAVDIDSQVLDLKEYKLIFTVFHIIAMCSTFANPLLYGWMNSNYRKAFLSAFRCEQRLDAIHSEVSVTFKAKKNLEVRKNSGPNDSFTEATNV

H322M cells = experiment: CytoTox-Glo cytotoxicity assay; type: cell-based, human; settings: for activity upon conjugation to digoxygenin: CytoTox-Glo; for biological activity of digoxigenated peptide complexed with digoxigenin binding antibody derivatives: cytotoxicity and viability assays, tumor cell lines
Experimental: To evaluate whether additions or alterations of the peptide Melittin, FALLv1 and FALLv2 by digoxygenin alters its biological activity, we performed in vitro assays. As these peptides are cytotoxic, their biological activity can easily be analyzed by monitoring the number of dead cells. To measure this number, the CytoTox-Glo assay (Promega Madison, WI) was used. Table 2 lists results of these CytoTox-Glo-assays that were performed to assess the biological activity of the Melittin, Fallv1 and Fallv2 peptides and their DIG-modified variants. For these assays, H322M cells were seeded at a density of 15.000 cells per well in 96 well plates. The cells were incubated for 24 hours at 37° C., 5% CO2 and 85% humidity in RPMI with 10% FCS, Na+ Pyrovate, L-Glutamine and NEAA mix. The peptide and it's DIG-modified variant were then added to the cells in the concentrations indicated. The cells were incubated for further 48 hours. After this period, the cells were treated with the CytoTox-Glo-assay reagent according to the manufacturers instructions. In brief, this assay detects dead cells via the presence of a protease in the medium that cleaves a […] peptide in the reagent. The luminescence of this assay therefore represents dead cells. The 96 well plates were then analyzed in a InfiniteF200 luminescence reader (Tecan Austria, Groding). […] Not only covalent coupling to haptens, but also complexation of peptides to large antibody molecules may influence their biological activity. Because IgG-derived molecules are large proteins (10-40 fold the size of peptides), it cannot a priori be excluded that such molecules may sterically hinder accessibility of peptide and therefore interfere with biological activity. To address this topic, we analyzed the in vitro activity of peptide-antibody complexes for the cytotoxic peptides FALLv1 and Fam5b. Again, we made use of the fact that these peptide are cytotoxic towards tumor cell lines and therefore tested their functionality in cytotoxicity and viability assays as described above. […] Moreover, utilizing bispecific antibodies for targeting such peptides to tumor cells, we could show increased peptide-mediated cytotoxicity towards targeted cells compared to nontargeted cells (as shown in PCT/EP2010/004051).

Q: For “IK-Pqa-RHYLNLVTRQ(N-methyl)RY [Example 5]”, which EC50 (Y2R) is on record?
A: 0.42 nM

Q: With “Adamtyl-IK-Pqa-RHYLNWVTRQ(N-methyl)RY (adamantyl-IK[Pqa]RHYLNWVTRQ[NMeR]Y; ends and bridges not checked) [Example 33]” as the compound, how does the EC50 (Y2R) read?
A: 2.9 nM

Q: With “Benzoyl-IK-Pqa-RHYLNWVTRQ(N-methyl)RY (Bz-IK[Pqa]RHYLNWVTRQ[NMeR]Y; ends and bridges not checked) [Example 32]” as the compound, how does the EC50 (Y2R) read?
A: 0.66 nM

Q: Which EC50 (Y2R) does the source give for “IK-Pqa-RHYLNLVTRQR-C-α-Me-Tyr [Example 24]” here?
A: 1.35 nM

Q: With “Ac-IK-Pqa-RHYLNWVTRQ(N-methyl)R(2-6 di F)Y (Ac-IK[Pqa]RHYLNWVTRQ[NMeR][Tyr(2,6-F2)]) [Example 27]” as the compound, how does the EC50 (Y2R) read?
A: 0.07 nM

Q: For “IK-Pqa-RHYLNLVTRQ(N-methyl)R(4-CF3)Phe [Example 16]”, which EC50 (Y2R) is on record?
A: 3.55 nM

Q: With “IK-Pqa-RHYLNLVTRQ(N-methyl)R(m-)Y [Example 6]” as the compound, how does the EC50 (Y2R) read?
A: 1.5 nM

Q: Which “activity upon conjugation to digoxygenin” value (H322M cells) does the source give for CC[C@H](C)[C@H](NC(=O)[C@H](CCCCN)NC(=O)[C@H](CCC(=O)O)NC(=O)[C@H](CCCCN)NC(=O)[C@H](CO)NC(=O)[C@H](CCCCN)NC(=O)[C@H](CCCNC(=N)N)NC(=O)[C@H](Cc1ccccc1)NC(=O)[C@H](Cc1ccccc1)NC(=O)[C@H](CC(=O)O)NC(=O)CNC(=O)[C@H](CC(C)C)NC(=O)[C@H](CC(C)C)NC(=O)[C@H](C)NC(=O)[C@H](Cc1ccccc1)NC(=O)[C@H](CCCNC(=N)N)NC(=O)[C@H](CCCCN)NC(=O)[C@@H](N)CC(N)=O)C(=O)NCC(=O)N[C@@H](CCCCN)C(=O)N[C@@H](CCC(=O)O)C(=O)N[C@@H](Cc1ccccc1)C(=O)N[C@@H](CCCCN)C(=O)N[C@@H](CCCNC(=N)N)C(=O)N[C@H](C(=O)N[C@H](C(=O)N[C@@H](CCC(N)=O)C(=O)N[C@@H](CCCNC(=N)N)C(=O)N[C@H](C(=O)N[C@@H](CCCCN)C(=O)N[C@@H](CC(=O)O)C(=O)N[C@@H](Cc1ccccc1)C(=O)N[C@@H](CC(C)C)C(=O)N[C@@H](CCCNC(=N)N)C(=O)N[C@@H](CC(N)=O)C(=O)N[C@@H](CC(C)C)C(=O)N[C@H](C(=O)N1CCC[C@H]1C(=O)N[C@@H](CCCNC(=N)N)C(N)=O)C(C)C)[C@@H](C)CC)C(C)C)[C@@H](C)CC [FALLv2] (H-NKRFALLGDFFRKSKEKIGKEFKRIVQRIKDFLRNLVPR-NH2; N-terminus and C-terminus assumed) here?
A: similarly retained

Q: Which “activity upon conjugation to digoxygenin” value (H322M cells) does the source give for CC[C@H](C)[C@H](NC(=O)[C@H](CCCCN)NC(=O)[C@H](CCC(=O)O)NC(=O)[C@H](CCCCN)NC(=O)[C@H](CO)NC(=O)[C@H](CCCCN)NC(=O)[C@H](CCCNC(=N)N)NC(=O)[C@H](Cc1ccccc1)NC(=O)[C@H](Cc1ccccc1)NC(=O)[C@H](CC(=O)O)NC(=O)CNC(=O)[C@H](CC(C)C)NC(=O)[C@H](CC(C)C)NC(=O)[C@H](C)NC(=O)[C@@H](N)Cc1ccccc1)C(=O)NCC(=O)N[C@@H](CCCCN)C(=O)N[C@@H](CCC(=O)O)C(=O)N[C@@H](Cc1ccccc1)C(=O)N[C@@H](CCCCN)C(=O)N[C@@H](CCCNC(=N)N)C(=O)N[C@H](C(=O)N[C@H](C(=O)N[C@@H](CCC(N)=O)C(=O)N[C@@H](CCCNC(=N)N)C(=O)N[C@H](C(=O)N[C@@H](CCCCN)C(=O)N[C@@H](CC(=O)O)C(=O)N[C@@H](Cc1ccccc1)C(=O)N[C@@H](CC(C)C)C(=O)N[C@@H](CCCNC(=N)N)C(=O)N[C@@H](CC(N)=O)C(=O)N[C@@H](CC(C)C)C(=O)N[C@H](C(=O)N1CCC[C@H]1C(=O)N[C@@H](CCCNC(=N)N)C(=O)N[C@H](C(=O)N[C@@H](CCC(=O)O)C(=O)N[C@@H](CO)C(N)=O)[C@@H](C)O)C(C)C)[C@@H](C)CC)C(C)C)[C@@H](C)CC [FALLv1] here?
A: similarly retained

Q: And the “biological activity of digoxigenated peptide complexed with digoxigenin binding antibody derivatives” value (H322M cells)?
A: retain their biological activities

Q: Which EC50 (Y2R) does the source give for “Pentyl-IK-Pqa-RHYLNWVTRQ(N-methyl)RY (Pentyl-IK[Pqa″]RHYLNWVTRQ[NMeR]Y) [Example 29]” here?
A: 0.51 nM

Q: With “IK-Pqa-RHYLNLVTRQ(N-methyl)RF [Example 12]” as the compound, how does the EC50 (Y2R) read?
A: 0.69 nM

Q: Which EC50 (Y2R) does the source give for “IK-Pqa-RHYLNWVTRQ(N-methyl)RY (IK[Pqa]RHYLNWVTRQ[NMeR]Y; ends and bridges not checked) [Example 25]” here?
A: 0.25 nM

Q: Which EC50 (Y2R) does the source give for “IK-P qa-RHYLNLVTRQ (N-methyl)R(2,3.4,5,6-Penta-F)Phe [Example 18]” here?
A: 2.5 nM

Q: With “IK-Pqa-RHYLNLVTRQ(N-methyl)R(3.4-diC1)Phe [Example 19]” as the compound, how does the EC50 (Y2R) read?
A: 1.47 nM

Q: With “IK-Pqa-RHYLNLVTRQ(N-methyl)R(3-F)Phe [Example 17]” as the compound, how does the EC50 (Y2R) read?
A: 0.75 nM

Q: For “IK-Pqa-RHYLNLVTRQ(N-methyl)RF(O—CH3) [Example 11]”, which EC50 (Y2R) is on record?
A: 0.55 nM

Q: With “IK-Pqa-RHYLNLVTRQ(N-methyl)R(2-6 di F)Y [Example 9]” as the compound, how does the EC50 (Y2R) read?
A: 0.19 nM

Q: With “IK-Pqa-RHYLNLVTRQ(N-methyl)R(1)Nal [Example 22]” as the compound, how does the EC50 (Y2R) read?
A: 1.14 nM

Q: For “IK-Pqa-RHYLNLVTRQ (N-methyl)R(3-5 di F)Y [Example 8]”, which EC50 (Y2R) is on record?
A: 0.36 nM

Q: Which EC50 (Y2R) does the source give for “INle-Pqa-RHYLNWVTRQ(N-methyl)RY (IXXRHYLNWVTRQRY; Nle, Pqa linker, N-methyl Arg) [Example 26]” here?
A: 0.108 nM

Q: Which EC50 (Y2R) does the source give for “Cyclohexyl-IK-Pqa-RHYLNWVTRQ(N-methyl)RY (cyclohexyl-IK[Pqa]RHYLNWVTRQ[NMeR]Y; ends and bridges not checked) [Example 31]” here?
A: 1.37 nM

Q: Which EC50 (Y2R) does the source give for “Trimetylacetyl-IK-Pqa-RHYLNWVTRQ(N-methyl)RY (Piv-IK[Pqa″]RHYLNWVTRQ[NMeR]Y) [Example 30]” here?
A: 0.26 nM

Q: For “IK-Pqa-RHYLNLVTRQ(N-methyl)RW (IK[Pqa]RHYLNLVTRQ[NMeR]W; ends and bridges not checked) [Example 21]”, which EC50 (Y2R) is on record?
A: 1.06 nM

Q: For “IK-Pqa-RHYLNLVTRQ(N-methyl)R(2)Nal [Example 23]”, which EC50 (Y2R) is on record?
A: 2.4 nM

Q: Which EC50 (Y2R) does the source give for “IK-Pqa-RHYLNLVTRQ(N-methyl)RCha [Example 20]” here?
A: 0.5 nM

Q: Which “biological activity of digoxigenated peptide complexed with digoxigenin binding antibody derivatives” value (H322M cells) does the source give for “QHRYQQLGAGLKVLFKKTHRILRRLFNLAK (listed as Homo sapiens) [Fam5b]” here?
A: retain their biological activities

From US20130280279A1, “PHARMACEUTICAL COMPOSITION OF A COMPLEX OF AN ANTI-DIG ANTIBODY AND DIGOXIGENIN THAT IS CONJUGATED TO A PEPTIDE” (HOFFMANN-LA ROCHE INC., priority 2011, published 2013)
